Measurements reported in paper PMC2965767, “Identification and Genome-Wide Prediction of DNA Binding Specificities for the ApiAP2 Family of Regulators from the Malaria Parasite”.
Substitutions are numbered along the chain they refer to.

How the values were obtained:
[1] = target: T1, PF13_0026 D1 (PF3D7_1305200, AP2 domain transcription factor, putative) (Plasmodium falciparum) (UniProt Q8IER4); details: PBM; highest protein concentration obtained; buffer not given; scale: PBM E-score of the seed 8-mer
T1 sequence: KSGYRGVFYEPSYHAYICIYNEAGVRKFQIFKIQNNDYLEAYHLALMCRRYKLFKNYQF

[2] = target: T2, PF07_0126 DLDext (PF3D7_0730300, AP2 domain transcription factor AP2-L, putative) (Plasmodium falciparum) (UniProt Q8IBF6); details: PBM; highest protein concentration obtained; buffer not given; scale: PBM E-score of the seed 8-mer
T2 sequence: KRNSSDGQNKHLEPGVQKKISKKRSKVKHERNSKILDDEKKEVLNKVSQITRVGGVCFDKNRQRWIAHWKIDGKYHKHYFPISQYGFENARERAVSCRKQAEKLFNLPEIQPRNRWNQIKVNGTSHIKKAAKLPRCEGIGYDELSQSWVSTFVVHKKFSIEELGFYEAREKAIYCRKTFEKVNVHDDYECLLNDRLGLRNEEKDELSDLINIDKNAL

[3] = target: T3, PF11_0404 D1 (PF3D7_1139300, AP2 domain transcription factor, putative) (Plasmodium falciparum) (UniProt Q8IHX2); details: PBM; highest protein concentration obtained; buffer not given; scale: PBM E-score of the seed 8-mer
T3 sequence: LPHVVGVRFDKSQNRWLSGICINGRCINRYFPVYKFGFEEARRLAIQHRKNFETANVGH

[4] = target: T4, PFE0840c D2 (PF3D7_0516800, AP2 domain transcription factor AP2-O2, putative) (Plasmodium falciparum) (UniProt Q8I3U0); details: PBM; highest protein concentration obtained; buffer not given; scale: PBM E-score of the seed 8-mer
T4 sequence: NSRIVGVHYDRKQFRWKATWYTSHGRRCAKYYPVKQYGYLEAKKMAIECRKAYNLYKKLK

[5] = target: T5, PF11_0442 D1ext (PF3D7_1143100, AP2 domain transcription factor AP2-O, putative) (Plasmodium falciparum) (UniProt Q8IHT5); details: PBM; highest protein concentration obtained; buffer not given; scale: PBM E-score of the seed 8-mer
T5 sequence: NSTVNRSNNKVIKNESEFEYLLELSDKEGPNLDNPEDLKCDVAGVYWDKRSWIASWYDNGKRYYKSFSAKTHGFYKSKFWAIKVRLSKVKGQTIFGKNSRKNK

[6] = target: T6, PF14_0079 D1 (PF3D7_1408200, AP2 domain transcription factor AP2-G2, putative) (Plasmodium falciparum) (UniProt Q8IM14); details: PBM; highest protein concentration obtained; buffer not given; scale: PBM E-score of the seed 8-mer
T6 sequence: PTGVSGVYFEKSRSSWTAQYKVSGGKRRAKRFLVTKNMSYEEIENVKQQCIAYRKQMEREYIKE

[7] = target: T7, MAL8P1.153 D1 (PF3D7_0802100, AP2 domain transcription factor, putative) (Plasmodium falciparum) (UniProt Q8IAM1); details: PBM; highest protein concentration obtained; buffer not given; scale: PBM E-score of the seed 8-mer
T7 sequence: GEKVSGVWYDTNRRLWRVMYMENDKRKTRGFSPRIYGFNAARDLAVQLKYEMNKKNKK

[8] = target: T8, PF13_0235 D1ext (PF3D7_1342900, AP2 domain transcription factor, putative) (Plasmodium falciparum) (UniProt C0H5G5); details: PBM; highest protein concentration obtained; buffer not given; scale: PBM E-score of the seed 8-mer
T8 sequence: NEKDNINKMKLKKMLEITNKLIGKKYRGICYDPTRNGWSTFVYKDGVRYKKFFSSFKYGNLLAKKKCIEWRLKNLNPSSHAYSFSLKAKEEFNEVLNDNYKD

[9] = target: T9, PF11_0091 D1 (PF3D7_1107800, AP2 domain transcription factor, putative) (Plasmodium falciparum) (UniProt Q8IIS4); details: PBM; highest protein concentration obtained; buffer not given; scale: PBM E-score of the seed 8-mer
T9 sequence: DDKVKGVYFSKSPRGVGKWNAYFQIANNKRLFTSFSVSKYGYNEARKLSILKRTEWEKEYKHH

[10] = target: T10, PF10_0075 D2ext (PF3D7_1007700, AP2 domain transcription factor AP2-I) (Plasmodium falciparum) (UniProt Q8IJW6); details: PBM; highest protein concentration obtained; buffer not given; scale: PBM E-score of the seed 8-mer
T10 sequence: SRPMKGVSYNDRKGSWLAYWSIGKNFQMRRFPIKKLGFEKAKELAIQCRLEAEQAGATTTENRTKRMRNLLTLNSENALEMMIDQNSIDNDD

[11] = target: T11, PFF0200c DLD (PF3D7_0604100, AP2 domain transcription factor) (Plasmodium falciparum) (UniProt C6KSN9); details: PBM; highest protein concentration obtained; buffer not given; scale: PBM E-score of the seed 8-mer
T11 sequence: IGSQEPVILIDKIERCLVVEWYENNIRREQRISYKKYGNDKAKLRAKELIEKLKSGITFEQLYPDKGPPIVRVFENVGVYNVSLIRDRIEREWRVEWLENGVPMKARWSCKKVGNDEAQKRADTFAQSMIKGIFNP

[12] = target: T12, PFF0670w D1 (PF3D7_0613800, AP2 domain transcription factor, putative) (Plasmodium falciparum) (UniProt C6KSY0); details: PBM; highest protein concentration obtained; buffer not given; scale: PBM E-score of the seed 8-mer
T12 sequence: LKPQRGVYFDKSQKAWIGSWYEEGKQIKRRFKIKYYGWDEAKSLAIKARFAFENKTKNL

[13] = target: T13, PFD0985w D1 (ApiAP2) (Plasmodium falciparum) (UniProt Q8I1N6); details: PBM; highest protein concentration obtained; buffer not given; scale: PBM E-score of the seed 8-mer
T13 sequence: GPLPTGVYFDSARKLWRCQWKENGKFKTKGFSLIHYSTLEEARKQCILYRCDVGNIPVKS

[14] = target: T14, PF14_0633 D1 (PF3D7_1466400, AP2 domain transcription factor AP2-EXP) (Plasmodium falciparum) (UniProt Q8IKH2); details: PBM; highest protein concentration obtained; buffer not given; scale: PBM E-score of the seed 8-mer
T14 sequence: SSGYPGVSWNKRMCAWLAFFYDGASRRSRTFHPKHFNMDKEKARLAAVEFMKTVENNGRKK

[15] = target: T15, PFL1900w D1ext (PF3D7_1239200, AP2 domain transcription factor, putative) (Plasmodium falciparum) (UniProt Q8I531); details: PBM; highest protein concentration obtained; buffer not given; scale: PBM E-score of the seed 8-mer
T15 sequence: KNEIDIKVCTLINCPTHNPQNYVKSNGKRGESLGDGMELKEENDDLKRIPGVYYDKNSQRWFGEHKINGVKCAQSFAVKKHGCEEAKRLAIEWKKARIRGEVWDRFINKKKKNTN

[16] = target: T16, PFL1900w DLD (PF3D7_1239200, AP2 domain transcription factor, putative) (Plasmodium falciparum, UniProt Q8I531 2149-2347); test: EMSA; 5 mM MgCl2 with 10 mM EDTA; LightShift buffer, 2.5% glycerol, 50 mM KCl, 0.05% NP-40, 50 ng/uL poly(dI-dC); room temperature, 20 min; details: tags: N-terminal GST (pGEX-4T1), kept; label: 5' biotin
T16 sequence: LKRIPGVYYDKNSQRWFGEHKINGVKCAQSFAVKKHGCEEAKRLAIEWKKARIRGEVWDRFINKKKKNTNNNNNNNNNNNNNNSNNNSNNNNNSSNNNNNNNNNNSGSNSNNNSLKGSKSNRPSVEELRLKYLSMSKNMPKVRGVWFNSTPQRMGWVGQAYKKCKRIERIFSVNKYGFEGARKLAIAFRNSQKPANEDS

[17] = target: T17, PF13_0235 D1ext (PF3D7_1342900, AP2 domain transcription factor, putative) (Plasmodium falciparum, UniProt C0H5G5 2339-2440); test: as above; details: tags: N-terminal GST (pGEX-4T1), kept; label: 5' biotin
T17 sequence: T8 sequence

[18] = target: T18, PFD0985w_D2 (AP2 domain 2) (Plasmodium falciparum, UniProt Q8I1N6 3268-3321); test: EMSA; poly(dI-dC); LightShift EMSA buffer, 2.5% glycerol, 5 mM MgCl2, 10 mM EDTA, 50 mM KCl, 0.05% NP-40, 50 ng/uL poly(dI-dC), 10 fmol biotin probe, 50 or 250x competitor, room temperature 20 min; details: protein: recombinant; tags: N-terminal GST (pGEX-4T1); label: 5' biotin (probe); blunt
T18 sequence: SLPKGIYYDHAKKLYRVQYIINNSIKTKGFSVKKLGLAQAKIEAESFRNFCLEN

[19] = target: T18, PFD0985w_D2 (AP2 domain 2); test: EMSA; poly(dI-dC); bound equally well as primary motif; LightShift EMSA buffer, 2.5% glycerol, 5 mM MgCl2, 10 mM EDTA, 50 mM KCl, 0.05% NP-40, 50 ng/uL poly(dI-dC), 10 fmol biotin probe, 50 or 250x competitor, room temperature 20 min; details: protein: recombinant; tags: N-terminal GST (pGEX-4T1); label: 5' biotin (probe); blunt
[20] = target: T19, PF13_0267 D1 (PF3D7_1350900, AP2 domain transcription factor AP2-O4, putative) (Plasmodium falciparum, UniProt A0A5K1K8Z4 400-521); test: EMSA; 5 mM MgCl2 with 10 mM EDTA; LightShift buffer, 2.5% glycerol, 50 mM KCl, 0.05% NP-40, 50 ng/uL poly(dI-dC); room temperature, 20 min; details: tags: N-terminal GST (pGEX-4T1), kept; label: 5' biotin
T19 sequence: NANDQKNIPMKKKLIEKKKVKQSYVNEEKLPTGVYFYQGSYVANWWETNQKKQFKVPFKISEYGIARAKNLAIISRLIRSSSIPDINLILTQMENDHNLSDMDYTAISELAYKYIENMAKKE

## TGCACACAC (double strand) [PF13_0026 primary motif]
[1]
  binding signal: 0.495

## AATTTCC (double strand) [PF07_0126_DLD primary motif]
[2]
  binding signal: 0.467

## TAGAACAA (double strand) [PF11_0404_D1 primary motif]
[3]
  binding signal: 0.485

## TGACATCA (double strand) [PFE0840c_D2 primary motif]
[4]
  binding signal: 0.472

## AGCTAGCT (double strand) [PF11_0442 primary motif]
[5]
  binding signal: 0.478

## TGCNACCA (double strand) [PF14_0079 primary motif]
[6]
  binding signal: 0.487

## CACACACA (double strand) [MAL8P1.153 primary motif]
[7]
  binding signal: 0.477

## GCCCCGC (double strand) [PF13_0235_D1 primary motif]
[8]
  binding signal: 0.494

## AGCATAC (double strand) [PF11_0091 primary motif]
[9]
  binding signal: 0.472

## AWGGKMCC / GGKMCCWT [PF13_0235_D1 Secondary motif 1]
[8]
  binding signal: > 0.45

## TCTTGCC (double strand) [PF10_0075_D2 primary motif]
[10]
  binding signal: 0.468

## GTGCAC (double strand) [PFF0200c_DLD primary motif]
[11]
  binding signal: 0.481

## WTAAGCC (double strand) [PFF0670w_D1 primary motif]
[12]
  binding signal: 0.465

## GTGTGTG (double strand) [PFD0985w_D1 primary motif]
[13]
  binding signal: 0.497

## TAGATCGA (double strand) [PF11_0404_D1 Secondary motif 1]
[3]
  binding signal: > 0.45

## ARCATGCA / TGCATGYT [PF14_0633 Secondary motif 1]
[14]
  binding signal: > 0.45

## TTCTACA (double strand) [PFL1900w_D1 primary motif]
[15]
  binding signal: 0.46

B1: PFL1900w_DLD-1 (motif rank) (dsDNA)
DNA 1: AATATTATAATAGTCGTAGCCATCAATTCTACAAAATGGTAATATAGATTTTCGTTTATATT
DNA 2: AATATAAACGAAAATCTATATTACCATTTTGTAGAATTGATGGCTACGACTATTATAATATT
[16]
  binding result: binds

B2: PFL1900w_DLD-2 (motif rank) (dsDNA)
DNA 1: B1 DNA 1 with T28A, T30G, A34T, A35C
DNA 2: B1 DNA 2 with T28G, T29A, A33C, A35T
[16]
  binding result: binds

B3: hsp86-MUT3 (dsDNA)
DNA 1: TTTTAAAAAAAAAAAAAAAGTATAGCGGAAATATACCATTGGATATATATTTAGTATTCC
DNA 2: GGAATACTAAATATATATCCAATGGTATATTTCCGCTATACTTTTTTTTTTTTTTTAAAA
[17]
  binding result: no binding

B4: PFD0985w_D2-1° (dsDNA)
DNA 1: AATATTATAATAGTCGTAGCCATCAATGTGTAACACATGGTAATATAGATTTTCGTTTATATT
DNA 2: AATATAAACGAAAATCTATATTACCATGTGTTACACATTGATGGCTACGACTATTATAATATT
[18]
  binding result: binds

B5: PFD0985w_D2-2° (dsDNA)
DNA 1: B4 DNA 1 with G28C, T29C, G30A, T31C, A33C, C34A, A35C
DNA 2: B4 DNA 2 with T29G, G30T, T31G, A33G, C34T, A35G, C36G
[19]
  binding result: binds

B6: hsp86 (dsDNA)
DNA 1: TTTTAAAAAAAAAAAAAAAGCCCCGCGGAAAGGGGCCATTGGATATATATTTAGTATTCC
DNA 2: GGAATACTAAATATATATCCAATGGCCCCTTTCCGCGGGGCTTTTTTTTTTTTTTTAAAA
[17]
  binding result: binds

B7: pfc0975c (dsDNA)
DNA 1: TTATGATGATACATAAATTACTGATCTTTCTAGGTGCGCTGCTACCATTATCGTGAATAA
DNA 2: TTATTCACGATAATGGTAGCAGCGCACCTAGAAAGATCAGTAATTTATGTATCATCATAA
[20]
  binding result: binds

B8: pfc0975c-MUT (dsDNA)
DNA 1: B7 DNA 1 with T31A, G33A
DNA 2: B7 DNA 2 with C28T, A30T
[20]
  binding result: no binding
